From PMC7954794, “Protein context shapes the specificity of SH3 domain-mediated interactions in vivo” (Nature Communications, 2021)

B1: ABP1 E13E (protein, UniProt P15891 2-592, looked up)
Actin-binding protein: ALEPIDYTTHSREIDAEYLKIVRGSDPDTTWLIISPNAKKEYEPESTGSSFHDFLQLFDETKVQYGLARVSPPGSDVEKIIIIGWCPDSAPLKTRASFAANFAAVANNLFKGYHVQVTARDEDDLDENELLMKISNAAGARYSIQTSSKQQGKASTPPVKKSFTPSKSPAPVSKKEPVKTPSPAPAAKISSRVNDNNDDDDWNEPELKERDFDQAPLKPNQSSYKPIGKIDLQKVIAEEKAKEDPRLVQKPTAAGSKIDPSSDIANLKNESKLKRDSEFNSFLGTTKPPSMTESSLKNDDDKVIKGFRNEKSPAQLWAERKAKQNSGNAETKAEAPKPEVPEDEPEGEPDVKDLKSKFEGLAASEKEEEEMENKFAPPPKKSEPTIISPKPFSKPQEPVKAEEAEQPKTDYKKIGNPLPGMHIEADNEEEPEENDDDWDDDEDEAAQPPLPSRNVASGAPVQKEEPEQEEIAPSLPSRNSIPAPKQEEAPEQAPEEEIEEEAEEAAPQLPSRSSAAPPPPPRRATPEKKPKENPWATAEYDYDAAEDNELTFVENDKIINIEFVDDDWWLGELEKDGSKGLFPSNYVSLGN
modifications: synonymous codon change E13E
B2: ABP1 D14D (protein, UniProt P15891 2-592, looked up)
Actin-binding protein: ALEPIDYTTHSREIDAEYLKIVRGSDPDTTWLIISPNAKKEYEPESTGSSFHDFLQLFDETKVQYGLARVSPPGSDVEKIIIIGWCPDSAPLKTRASFAANFAAVANNLFKGYHVQVTARDEDDLDENELLMKISNAAGARYSIQTSSKQQGKASTPPVKKSFTPSKSPAPVSKKEPVKTPSPAPAAKISSRVNDNNDDDDWNEPELKERDFDQAPLKPNQSSYKPIGKIDLQKVIAEEKAKEDPRLVQKPTAAGSKIDPSSDIANLKNESKLKRDSEFNSFLGTTKPPSMTESSLKNDDDKVIKGFRNEKSPAQLWAERKAKQNSGNAETKAEAPKPEVPEDEPEGEPDVKDLKSKFEGLAASEKEEEEMENKFAPPPKKSEPTIISPKPFSKPQEPVKAEEAEQPKTDYKKIGNPLPGMHIEADNEEEPEENDDDWDDDEDEAAQPPLPSRNVASGAPVQKEEPEQEEIAPSLPSRNSIPAPKQEEAPEQAPEEEIEEEAEEAAPQLPSRSSAAPPPPPRRATPEKKPKENPWATAEYDYDAAEDNELTFVENDKIINIEFVDDDWWLGELEKDGSKGLFPSNYVSLGN
modifications: synonymous codon change D14D
B3: ABP1 N15N (protein, UniProt P15891 2-592, looked up)
Actin-binding protein: ALEPIDYTTHSREIDAEYLKIVRGSDPDTTWLIISPNAKKEYEPESTGSSFHDFLQLFDETKVQYGLARVSPPGSDVEKIIIIGWCPDSAPLKTRASFAANFAAVANNLFKGYHVQVTARDEDDLDENELLMKISNAAGARYSIQTSSKQQGKASTPPVKKSFTPSKSPAPVSKKEPVKTPSPAPAAKISSRVNDNNDDDDWNEPELKERDFDQAPLKPNQSSYKPIGKIDLQKVIAEEKAKEDPRLVQKPTAAGSKIDPSSDIANLKNESKLKRDSEFNSFLGTTKPPSMTESSLKNDDDKVIKGFRNEKSPAQLWAERKAKQNSGNAETKAEAPKPEVPEDEPEGEPDVKDLKSKFEGLAASEKEEEEMENKFAPPPKKSEPTIISPKPFSKPQEPVKAEEAEQPKTDYKKIGNPLPGMHIEADNEEEPEENDDDWDDDEDEAAQPPLPSRNVASGAPVQKEEPEQEEIAPSLPSRNSIPAPKQEEAPEQAPEEEIEEEAEEAAPQLPSRSSAAPPPPPRRATPEKKPKENPWATAEYDYDAAEDNELTFVENDKIINIEFVDDDWWLGELEKDGSKGLFPSNYVSLGN
modifications: synonymous codon change N15N
B4: ABP1 E16E (protein, UniProt P15891 2-592, looked up)
Actin-binding protein: ALEPIDYTTHSREIDAEYLKIVRGSDPDTTWLIISPNAKKEYEPESTGSSFHDFLQLFDETKVQYGLARVSPPGSDVEKIIIIGWCPDSAPLKTRASFAANFAAVANNLFKGYHVQVTARDEDDLDENELLMKISNAAGARYSIQTSSKQQGKASTPPVKKSFTPSKSPAPVSKKEPVKTPSPAPAAKISSRVNDNNDDDDWNEPELKERDFDQAPLKPNQSSYKPIGKIDLQKVIAEEKAKEDPRLVQKPTAAGSKIDPSSDIANLKNESKLKRDSEFNSFLGTTKPPSMTESSLKNDDDKVIKGFRNEKSPAQLWAERKAKQNSGNAETKAEAPKPEVPEDEPEGEPDVKDLKSKFEGLAASEKEEEEMENKFAPPPKKSEPTIISPKPFSKPQEPVKAEEAEQPKTDYKKIGNPLPGMHIEADNEEEPEENDDDWDDDEDEAAQPPLPSRNVASGAPVQKEEPEQEEIAPSLPSRNSIPAPKQEEAPEQAPEEEIEEEAEEAAPQLPSRSSAAPPPPPRRATPEKKPKENPWATAEYDYDAAEDNELTFVENDKIINIEFVDDDWWLGELEKDGSKGLFPSNYVSLGN
modifications: synonymous codon change E16E
B5: ABP1 L17L (protein, UniProt P15891 2-592, looked up)
Actin-binding protein: ALEPIDYTTHSREIDAEYLKIVRGSDPDTTWLIISPNAKKEYEPESTGSSFHDFLQLFDETKVQYGLARVSPPGSDVEKIIIIGWCPDSAPLKTRASFAANFAAVANNLFKGYHVQVTARDEDDLDENELLMKISNAAGARYSIQTSSKQQGKASTPPVKKSFTPSKSPAPVSKKEPVKTPSPAPAAKISSRVNDNNDDDDWNEPELKERDFDQAPLKPNQSSYKPIGKIDLQKVIAEEKAKEDPRLVQKPTAAGSKIDPSSDIANLKNESKLKRDSEFNSFLGTTKPPSMTESSLKNDDDKVIKGFRNEKSPAQLWAERKAKQNSGNAETKAEAPKPEVPEDEPEGEPDVKDLKSKFEGLAASEKEEEEMENKFAPPPKKSEPTIISPKPFSKPQEPVKAEEAEQPKTDYKKIGNPLPGMHIEADNEEEPEENDDDWDDDEDEAAQPPLPSRNVASGAPVQKEEPEQEEIAPSLPSRNSIPAPKQEEAPEQAPEEEIEEEAEEAAPQLPSRSSAAPPPPPRRATPEKKPKENPWATAEYDYDAAEDNELTFVENDKIINIEFVDDDWWLGELEKDGSKGLFPSNYVSLGN
modifications: synonymous codon change L17L in SH3

Key:
Assay type in all cases: cell-based, Saccharomyces cerevisiae
[1] = system: Hua2 and Lsb3; assay: Quadrant classification of Abp1 SH3 variants from DMS scores (Abp1-Hua2 and Abp1-Lsb3 DHFR-PCA); conditions: class by effect on Hua2 and Lsb3 PPIs (Dest. both / Dest. Hua2 / Dest. Lsb3 / Neutral)
[2] = system: Hua2; assay: Deep mutational scanning of Abp1 SH3, Abp1-Hua2 DHFR-PCA (DMS score); conditions: for hua2sc (DMS score): Frequencies scaled to the synonymous mutation distribution (DMS score), Hua2; for HUA2_MTX2: frequencies normalized to the reference condition, Abp1-Hua2, MTX2
In short: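 Yeast carrying single-codon Abp1 SH3 variants at the endogenous locus, each paired with a Hua2 or Lsb3 DHFR-fragment partner; binding scored by growth over two successive 72 h PCA selections at 30 °C. Illumina counts before and after selection give the DMS score; independent duplicates.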

[3] = system: Lsb3; assay: Deep mutational scanning of Abp1 SH3, Abp1-Lsb3 DHFR-PCA (DMS score); conditions: for lsb3sc (DMS score): Frequencies scaled to the synonymous mutation distribution (DMS score), Lsb3; for LSB3_MTX2: frequencies normalized to the reference condition, Abp1-Lsb3, MTX2
Protocol: Single site mutation libraries were generated by a PCR-based saturation mutagenesis method[50] as described below. The mutagenesis was carried out on the pUC19 plasmid containing the SH3 domain sequence of ABP1 flanked by its homology arms subsequently used in the CRISPR mediated genomic re-integration. We used oligos containing degenerate nucleotides (NNN) to carry out the mutagenesis at each codon of the domain sequence. In the first step of the two-step PCR procedure (short PCR step), an amplicon was generated with an oligo containing the degenerate codon which is positioned within the domain sequence, and another oligo lying outside Abp1 sequence in the plasmid. Short PCR step was carried out with the following settings: 5 min at 95 °C, 35 cycles: 20 s at 98 °C, 15 s at 60 °C, 30 s at 72 °C, and a final extension of 1 min at 72 °C. The amplicon generated in this step was used as a mega primer in the second step (long PCR step) to amplify the whole plasmid. Long PCR step was carried out with the following settings: 5 min at 95 °C, 22 cycles: 20 s at 98 °C, 15 s at 68 °C, 3 min 30 s at 72 °C, and a final extension of 5 min at 72 °C. The long PCR product was digested for 2 h at 37 °C with DpnI. The digestion product was then transformed into E. coli MC1061 competent cells. In order to obtain most of the 64 possible codons, we recovered ~1000 colonies from each plate to retrieve the plasmid single mutant libraries. Saturation mutagenesis was carried out in a codon-position-wise manner. Mutants at each position were stored separately. Library quality control was assessed by amplifying the purified plasmid DNA preparations by PCR followed by Illumina sequencing as described below. The genomic insertion of the mutant libraries (one library per amino acid position) was performed by targeting the stuffer sequence in the ABP1 SH3-deleted strain as described in the strain construction section. ABP1 SH3-deleted yeast competent cells were co-transformed with pCAS containing the stuffer-specific gRNA and PCR amplified ABP1 SH3 single position mutated libraries from the pUC19 preparations. As for the library generation, ~1000 colonies from each plate were retrieved. Glycerol stocks of yeast cells were kept for each position (58 different stocks corresponding to the 58 amino acid positions of Abp1 SH3). The stocks were also validated by Illumina sequencing (see below).
Liquid DHFR-PCA experiments were performed following the generation of the ABP1 SH3 single position mutated yeast strains and were performed in biological independent duplicates. An overnight culture was started in YPD + NAT by adding the same number of cells from each yeast mutant strain (master pool). Then, the master pool and Hua2-DHFR F[3] or Lsb3-DHFR F[3] preys strains were mixed in YPD (2:1) for mating and incubated for 8 h at 30 °C. Diploid cells were selected the first time by transferring the mixture in a YPD + NAT + HPH (OD 0.5) culture for 16 h at 30 °C. The next day, the first diploid selection was transferred in SC complete pH 6.0 + NAT + HPH at 0.5 OD and the culture was grown for 24 h at 30 °C. The validation of the yeast mutant libraries was done the next day with a fraction of the diploid cells (first DHFR-PCA experiment time point without PCA selection, reference condition S2) by amplifying ABP1 SH3 genomic sequence followed by Illumina sequencing as described in the section below. Following the selection, diploid cells OD was read using a TECAN Infinite F200 Pro, and dilutions to 0.1 OD in PCA selection media without agar in a 50 mL tube was done. Tubes were incubated at 30 °C for 72 h (second-time point of the DHFR-PCA experiment, first PCA selection). A fraction of the cells (5U OD) was collected for Illumina sequencing. The cells from the first PCA step were grown for a second PCA selection step using the same procedures. […]

Molecule	quadrant [1]	hua2sc (DMS score) [2]	HUA2_MTX2 [2]	lsb3sc (DMS score) [3]	LSB3_MTX2 [3]
B1	Neutral	-0.2784	1.334	-0.3311	1.169
B2	Neutral	0.002961	1.616	-0.6602	0.8401
B3	Neutral	-0.2193	1.393	0.1386	1.639
B4	Neutral	0.3666	1.979	0.1832	1.684
B5	Neutral	-0.5458	1.067	-0.4377	1.063
